The values that follow come from patent publication US12649008B2, “Peptide receptor radionuclide therapy” (The Regents of the University of California, priority 2020, dated 2026).

The test system of one data set is mouse serum proteins. The experiment in a line: Serum protein (albumin) binding by ultrafiltration, mouse serum. The class given is in vitro ADME. To be noted: 37° C. The method, then:
The devices were pre-treated with PBS containing Tween 20 (5% v/v) as disclosed in Hausner 2007, followed by triplicate rinses with PBS. An aliquot of each formulated radiotracer in PBS (≤25 μL, 20-60 KBq) was thoroughly mixed with 0.5 mL serum at 37° C. in a microfuge tube. The mixture was incubated at 37° C. for 5 min and an aliquot (50 μL) of was transferred to a tube for γ-counting. The remaining sample was transferred to a Centrifree Ultrafiltration device and centrifuged for 40 min. at 1500×g at ambient temperature (20-24° C.). An aliquot (50 μL) of the filtrate was transferred to a tube for γ-counting. For each radiotracer, a blank was run using 0.5 mL PBS/Tween 20 (5% v/v) instead of serum (n=4) to determine non-specific binding. Following γ-counting, the protein-bound radioactivity was calculated by subtracting the counts measured in the filtrate aliquot (i.e., not protein bound) from the counts in the corresponding serum aliquot. The data are expressed as mean±standard deviation of fraction of radioactivity bound to protein after subtraction of non-specific binding determined in the blank.

Data set [1] is described as follows: In vitro serum stability, human serum. The class given is in vitro ADME. Conditions: 37° C., read-out: stability in human serum (intact radiotracer). As to the method: Mouse or human serum (500 μl, both purchased from Millipore Sigma) was combined with an aliquot of the formulated radiotracer (100-200 μCi) and incubated at 37° C. Aliquots (100-200 μl) were drawn for analysis at 1 and 2 h post-incubation for the ^68Ga radiotracers and 1 and 24 h post-incubation for ^177Lu radiotracers, mixed with absolute ethanol (500 μl, 4° C.), and centrifuged (2300× g, 3 min) to precipitate out serum proteins. The supernatant was diluted with HPLC Solvent A and analyzed by radio-HPLC to determine the fraction of intact radiotracer as disclosed in Hausner et al., “In vitro and in vivo evaluation of the effects of aluminum [^18F]fluoride radiolabeling on an integrin αvβ6-specific peptide” Nuclear medicine and biology.

SMILES strings stand for the structures.

With `CNC(=O)C(CCCCNC(=O)C(CC(=O)O)NC(=O)CCCNC(=O)CCCc1ccc(I)cc1)NC(=O)CN1CCN2CCN3CCN(CC1)CC(=O)[O][177Lu]([O]C(=O)C2)[O]C(=O)C3` (centres unmarked) [[^177Lu]Lu DOTA-ABM-5G], the “albumin (serum protein) binding” value in the data set with mouse serum proteins stood at 54.4±2.8%. Besides, in data set [1], the remaining at 24 h is no less than 97%.
